Reference: patent publication US20090155833A1 (TEIJIN PHARMA, published 2009)

Target: T1, mouse GPR12 (mouse, UniProt P35412 1-334)
T1 sequence: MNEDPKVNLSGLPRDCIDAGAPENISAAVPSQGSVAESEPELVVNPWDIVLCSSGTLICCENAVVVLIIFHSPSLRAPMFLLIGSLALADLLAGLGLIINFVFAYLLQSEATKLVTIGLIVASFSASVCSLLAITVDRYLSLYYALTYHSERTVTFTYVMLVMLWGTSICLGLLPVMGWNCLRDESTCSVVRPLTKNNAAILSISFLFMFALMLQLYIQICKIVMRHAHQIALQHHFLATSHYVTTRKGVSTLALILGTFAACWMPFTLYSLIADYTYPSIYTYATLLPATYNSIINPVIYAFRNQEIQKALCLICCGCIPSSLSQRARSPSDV
Assay: cell-based or functional assay

intracellular cAMP level (Fold against the (-) group), CHO-K1-GPR12 cells, 10^-9 M peptide with 10^-5 M Forskolin: ~5 fold
B1: Nesfatin-1M30 (peptide)
peptide: PDTGLYYDEYLKQVIDVLETDKHFREKLQK
